Experiments:
[1] = target: human APRIL (Examples 21-23) (human) (UniProt O75888); assay: assay not given (Example 21)
[2] = target: human BAFF (Examples 21-23) (human) (UniProt Q9Y275); assay: assay not given (Example 21)

Chain of human APRIL (Examples 21-23) (human) (O75888 105-250 limits assumed): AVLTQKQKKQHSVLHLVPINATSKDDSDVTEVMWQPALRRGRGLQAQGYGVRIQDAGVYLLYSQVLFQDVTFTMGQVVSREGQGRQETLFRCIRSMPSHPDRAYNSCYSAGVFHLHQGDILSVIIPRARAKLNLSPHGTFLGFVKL

B1: BION-1301 (antibody, INN chains, looked up, V domains shown)
VH: QVQLVQSGAEVKKPGASVKVSCKASGYTFTDYTIHWVRQATGQGLEWMGWIYPLRGSINYAQKFQGRVTMTADKSISTVYMELSSLRSEDTAVYFCARHGAYYSNAFDYWGQGTLVTVSS
VL: EIVMTQSPATLSVSPGERATLSCRASESVDNDGIRFLHWYQQKPGQAPRLLIYRASTRATGIPARFSGSGSRTEFTLTISSLQSEDFAVYYCQQSNKDPYTFGGGTKVEIK
- Kd [1]: 0.4 nM

B2: Benlysta (antibody, INN chains, looked up, V domains shown)
VH: QVQLQQSGAEVKKPGSSVRVSCKASGGTFNNNAINWVRQAPGQGLEWMGGIIPMFGTAKYSQNFQGRVAITADESTGTASMELSSLRSEDTAVYYCARSRDLLLFPHHALSPWGRGTMVTVSS
VL: SSELTQDPAVSVALGQTVRVTCQGDSLRSYYASWYQQKPGQAPVLVIYGKNNRPSGIPDRFSGSSSGNTASLTITGAQAEDEADYYCSSRDSSGNHWVFGGGTELTVLG
- Kd [2]: 0.0023 nM
